From publication PMC13342644 (2026)

Experiments:
NB1 = assay: ELISA
NB2 = assay: ELISA

B1: Avi-tagged, biotinylated GDP-mannose transporter Vrg4 from Candida albicans (natural protein)
chain: MDSKHSTSSSSSGSLATRISNSGPISIAAYCLSSILMTVTNKYVLSGFSFNLNFFLLAVQSIVCIVTIGSLKSLNIITYRQFNKDEAKKWSPIAFLLVAMIYTSSKALQYLSIPVYTIFKNLTIILIAYGEVIWFGGKVTTMALSSFLLMVLSSVIAYYGDNAAVKSHDDAFALYLGYFWMLTNCFASAAFVLIMRKRIKLTNFKDFDTMYYNNLLSIPILLICSFIFEDWSSANVSLNFPADNRVTTITAMILSGASSVGISYCSAWCVRVTSSTTYSMVGALNKLPIALSGLIFFEAAVNFWSVSSIFVGFGAGLVYAVAKQKQQKEQSQQLPTTK
modifications: biotin (Avi tag biotinylated using BirA ligase)
- Kd (NB1): 109 nM
- Kd (NB2): 125 nM
